B1: Hairpin Ribozyme (parent)
chain: GUCCUCUUUCACGUGCGCGUGAAAGAGAGAAGUGAACCAGAGAAACACACGUUGUGGUAUAUUACCUGGUA

Variants of: B1
Experiment: self-cleavage, relative activity (ratio to wild type); higher = more cleavage; co-transcriptional

| Variant | self-cleavage |
| --- | --- |
| GUCCUCUUUCACGUGCGCGUGAAAGAGAGAAGUGAACCAGAGAAAAACACGUUGUGGUAUAUUACCUGGUU [C46A A71U] | 0.161 |
| GUCCUCUCUCACGUGCGCGUGAAAGAGAGAAGUGAACCAGAGAAACACACGUUGUGGUAUAUUACAUGGUA [U8C C66A] | 0.19 |
| GUCCUCUUUCACGUGCGCGUAAAAGAGAGAAGUGAACCAGAGAAACACACUUUGUGGUAUAUUACCUGGUA [G21A G51U] | 0.99 |
| GUCCUCGUUCACGUGCGCGUGAAAGAGAGAAGUGAACCAGAGAAACAUACGUUGUGGUAUAUUACCUGGUA [U7G C48U] | 0.114 |
| AUCCUCUUUCACGUGCGCGAGAAAGAGAGAAGUGAACCAGAGAAACACACGUUGUGGUAUAUUACCUGGUA [G1A U20A] | 0.213 |
| GUCCUAUUUCACGUGCGCGUGAAAGAGAGAAGUGAACCAGAGAAACACACGUUGUGAUAUAUUACCUGGUA [C6A G57A] | 0.107 |
| GUCCUCUUUCACGUGCGCUUGAAAGAGAGAAGUGAAUCAGAGAAACACACGUUGUGGUAUAUUACCUGGUA [G19U C37U] | 0.588 |
| GUCCGCUUUCACGUGCGCGUGAAAGAGAGAAGUGAACCAGAGAAACACACGUUGUGGUAUAUGACCUGGUA [U5G U63G] | 0.0714 |
| GUCCUCUUUCACGUGCUCGUGAAAGAGAGAAGUGAACCAGAGAAACACACGUUGUGCUAUAUUACCUGGUA [G17U G57C] | 0.151 |
| GUCCUCUUUCACGUGCGCGUGAAUGAGAGAAGUGAACAAGAGAAACACACGUUGUGGUAUAUUACCUGGUA [A24U C38A] | 0.154 |
| GUCCUCUUUCACGUGCGCGUGAAAGAGAGAAGUCAACCAGAGAAACACACGUUGUGAUAUAUUACCUGGUA [G34C G57A] | 0.427 |
| GUCCUCUUUCACGUGCGAGUGAAAGAGAGAAGUGAACCAGAGAAACACACGUUGUGUUAUAUUACCUGGUA [C18A G57U] | 0.439 |
| GUCCUCUUUCACGUGCGCGUGAAAGAGAGAAGUGAACCAGAGAAACACACGUUGUGGUAUAUUUCCUUGUA [A64U G68U] | 0.23 |
| GUCCUCUUUCACGUGCGCGUGAAAGAGAGAAGUGAACCAGAGAAACACACGUUGCGGUAUAGUACCUGGUA [U55C U62G] | 0.132 |
| GUCCUCUUUCACGUGCCCGUGAAAUAGAGAAGUGAACCAGAGAAACACACGUUGUGGUAUAUUACCUGGUA [G17C G25U] | 0.505 |
| GUCCUCUUUCACGUGCGCGUGAAAUAGAGAAGUGAACCAGAGAAACACACGUUGUGGUAUAUUACCUGCUA [G25U G69C] | 0.0669 |
| GUCCUCUUUCACGUGCGCUUGAAAGAGAGAAGUGAACCACAGAAACACACGUUGUGGUAUAUUACCUGGUA [G19U G40C] | 0.11 |
| GUCCUCUUUCACGUGCGCGUGAAAGAGAGAAGUGAACCAGAGCAACAAACGUUGUGGUAUAUUACCUGGUA [A43C C48A] | 0.135 |
| GUCCUCUUUCACGUGCGCGUGAUAGAGAGAAGUGUACCAGAGAAACACACGUUGUGGUAUAUUACCUGGUA [A23U A35U] | 0.754 |

| Variant | self-cleavage |
| --- | --- |
| GUCCUCUUUCACGUGCGCGUGAAAAAGAGAAGUGAACCAGAGAAACACUCGUUGUGGUAUAUUACCUGGUA [G25A A49U] | 0.209 |
| GACCUCUUUCACGUGCGCGUGAAAGAGAGAAGUGAAGCAGAGAAACACACGUUGUGGUAUAUUACCUGGUA [U2A C37G] | 0.123 |
| GUCCACUUUCACGUGCGCGUGAAAGAGACAAGUGAACCAGAGAAACACACGUUGUGGUAUAUUACCUGGUA [U5A G29C] | 0.153 |
| GUCCUCUUUCACGUGCGCGUGAAAGAGAGACGUGGACCAGAGAAACACACGUUGUGGUAUAUUACCUGGUA [A31C A35G] | 0.13 |
| GUCGUCUUUCACGUGCGCGCGAAAGAGAGAAGUGAACCAGAGAAACACACGUUGUGGUAUAUUACCUGGUA [C4G U20C] | 0.135 |
| GUCCUAUUUCACGUGCGCGUGAAAGAGAGAAGUGAACCAGAGAAACACACGUUGUGGUAUAUUACCUGGUA [C6A] | 0.586 |
| GUCCUCUUUCACGUGCGCGUGAAAGAGAGAAGUGAACCGGAGAAACACACGUUGUGGUAUAUUACCGGGUA [A39G U67G] | 0.147 |
| GUCCUCUUUCACGUGGGCGUGAAAGAGAGAAGUGAACCAGAGAAACACACGUUGUGGCAUAUUACCUGGUA [C16G U58C] | 1.06 |
| GUCCUCUUUCACGUGCGCGUGAAAGUGAGAAGUGCACCAGAGAAACACACGUUGUGGUAUAUUACCUGGUA [A26U A35C] | 0.846 |
| GUCCUCUUUCACGUGCGCGUGAAAGGGAGAAGUGAACCAGAGAAACACACGUUGUGGUAUAUUAACUGGUA [A26G C65A] | 0.702 |
| GUCCUCUUUCACGUGCGCGUGAAAGAGAGAAGUGAACCAGAGAAACACACGGUAUGGUAUAUUACCUGGUA [U52G G54A] | 0.375 |
| GUCCUUUUUCACGUGCGCGUGAAAGAGAGAAAUGAACCAGAGAAACACACGUUGUGGUAUAUUACCUGGUA [C6U G32A] | 0.114 |
| GUCCUCUUUCACGUGCGCAUGAAGGAGAGAAGUGAACCAGAGAAACACACGUUGUGGUAUAUUACCUGGUA [G19A A24G] | 0.737 |
| GUCCUCUUUCACGCGCGCGUGAAAGAGAGAAGUGAACCAGAGAAACACACGUUGUGGUGUAUUACCUGGUA [U14C A59G] | 0.0434 |
| GUCUUCUUUCACGUGCGCGUGAAAGAGAGAAUUGAACCAGAGAAACACACGUUGUGGUAUAUUACCUGGUA [C4U G32U] | 0.0825 |
| GUCCUCUUUCACGUGCGCCUGAAAGCGAGAAGUGAACCAGAGAAACACACGUUGUGGUAUAUUACCUGGUA [G19C A26C] | 0.272 |
| GUCCUCUUUCACUUGCGCGUUAAAGAGAGAAGUGAACCAGAGAAACACACGUUGUGGUAUAUUACCUGGUA [G13U G21U] | 0.53 |
| GUCCCCUUUCACGUGCGCGUAAAAGAGAGAAGUGAACCAGAGAAACACACGUUGUGGUAUAUUACCUGGUA [U5C G21A] | 0.62 |
| GUCCUCUUUCACGUGCGCGUGAAAGUGAGAAGUGAACCAGAGAAACACACGUUGUGCUAUAUUACCUGGUA [A26U G57C] | 0.123 |
